Laboratory results: CN115677859A (HEFEI HANKEMAB BIOTECHNOLOGY CO LTD; ANHUI ANKE …, dated 2023)
One block for each binder: values may come before it.

Key:
[1] = target: T1, 人PD-L1全长, 表达于CHO-K1细胞 (CHO-K1/hPD-L1; CHO-K1/PDL1/TCR) (human, UniProt Q9NZQ7 19-290); experiment: flow cytometry on CHO-K1/hPD-L1 cells, anti-human FITC
T1 construct: Full-length human PD-L1 transfected into CHO-K1 cells; also called 细胞表面人PD-L1抗原

[2] = target: T2, 人4-1BB胞外段 (human 4-1BB extracellular domain, HEK293-expressed, Example 4) (human, UniProt Q07011 24-186); experiment: ELISA, human 4-1BB ECD coated, anti-human IgG HRP
T2 construct: also called 人4-1BB抗原; CD137

[3] = target: T1, 人PD-L1全长, 表达于CHO-K1细胞 (CHO-K1/hPD-L1; …); experiment: flow cytometry on CHO-K1/hPD-L1 cells, 4-parameter logistic fit
[4] = target: T3, 人4-1BB全长, 表达于细胞 (CHO-K1/h4-1BB; HEK-293/NFκB-Luci/4-1BB) (human, UniProt Q07011 24-255); experiment: flow cytometry on CHO-K1/h4-1BB cells
T3 construct: also called 细胞表面人4-1BB抗原
T3 sequence (Q07011 24-255 limits assumed): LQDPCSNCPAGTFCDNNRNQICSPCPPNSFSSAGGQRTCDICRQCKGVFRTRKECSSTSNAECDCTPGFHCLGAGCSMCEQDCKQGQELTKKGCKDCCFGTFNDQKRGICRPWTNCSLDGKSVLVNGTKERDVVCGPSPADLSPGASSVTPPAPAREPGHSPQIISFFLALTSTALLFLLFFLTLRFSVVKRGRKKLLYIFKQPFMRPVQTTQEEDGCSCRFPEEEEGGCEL

[5] = target: T4, 人4-1BB胞外段, 带鼠Fc标签 (human 4-1BB extracellular domain with mouse Fc tag, Example 5) (human, UniProt Q07011 24-186); experiment: bridging ELISA: PD-L1-His coated, bispecific, then 4-1BB-mouse Fc, anti-mouse HRP
T4 construct: also called 抗原人4-1BB; not shown: mouse Fc tag

[6] = target: T5, 猴4-1BB胞外段 (monkey 4-1BB extracellular domain) (monkey (猴), UniProt Q07011 24-186 (human entry)); experiment: ELISA, monkey 4-1BB ECD coated, anti-human HRP
T5 construct: also called 猴4-1BB抗原
T5 chain: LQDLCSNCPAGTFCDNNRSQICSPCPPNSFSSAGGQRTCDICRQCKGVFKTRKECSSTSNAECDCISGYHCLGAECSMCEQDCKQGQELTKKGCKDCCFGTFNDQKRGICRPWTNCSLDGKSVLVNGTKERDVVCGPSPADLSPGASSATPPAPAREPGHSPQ

[7] = target: T6, 猴PD-L1胞外段 (monkey PD-L1 extracellular domain) (monkey (猴), UniProt Q9NZQ7 19-238 (human entry)); experiment: ELISA, monkey PD-L1 ECD coated, anti-human HRP
T6 construct: also called 猴PD-L1抗原
T6 sequence (Q9NZQ7 other isoform, or with tags, fused parts or gaps): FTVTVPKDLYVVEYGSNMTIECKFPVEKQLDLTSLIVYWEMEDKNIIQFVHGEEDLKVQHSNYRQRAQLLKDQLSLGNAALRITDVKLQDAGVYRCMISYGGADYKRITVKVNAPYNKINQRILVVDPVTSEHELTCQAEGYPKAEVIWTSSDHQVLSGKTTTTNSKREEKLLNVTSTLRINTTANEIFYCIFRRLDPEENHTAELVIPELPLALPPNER

T1 sequence (Q9NZQ7 19-290 limits assumed): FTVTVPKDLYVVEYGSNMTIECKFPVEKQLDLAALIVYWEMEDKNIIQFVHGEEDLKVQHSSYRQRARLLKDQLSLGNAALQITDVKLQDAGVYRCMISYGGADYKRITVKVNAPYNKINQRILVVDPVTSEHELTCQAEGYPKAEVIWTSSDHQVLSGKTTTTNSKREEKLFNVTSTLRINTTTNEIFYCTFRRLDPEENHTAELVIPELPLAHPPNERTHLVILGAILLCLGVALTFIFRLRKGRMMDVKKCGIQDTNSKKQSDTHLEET

- FACS fluorescence signal at 0.308 nM (name of read-out not given) [1]: 617
- FACS fluorescence signal at 0.617 nM (name of read-out not given) [1]: 889
- FACS fluorescence signal at 1.851 nM (name of read-out not given) [1]: 1450
- FACS fluorescence signal at 5.555 nM (name of read-out not given) [1]: 4430
- FACS fluorescence signal at 16.666 nM (name of read-out not given) [1]: 8220
- FACS fluorescence signal at 50 nM (name of read-out not given) [1]: 8490
- binding result [2]: binds
- EC50 [3]: 5.82 nM
- binding result [4]: binds
- binding result [5]: binds
B1: 抗人PD-L1/4-1BB双特异性抗体 结构B (anti-4-1BB scFv-(G4S)2-IgG4 Fc-(G4S)3-anti-PD-L1 Fab) (bispecific antibody)
heavy: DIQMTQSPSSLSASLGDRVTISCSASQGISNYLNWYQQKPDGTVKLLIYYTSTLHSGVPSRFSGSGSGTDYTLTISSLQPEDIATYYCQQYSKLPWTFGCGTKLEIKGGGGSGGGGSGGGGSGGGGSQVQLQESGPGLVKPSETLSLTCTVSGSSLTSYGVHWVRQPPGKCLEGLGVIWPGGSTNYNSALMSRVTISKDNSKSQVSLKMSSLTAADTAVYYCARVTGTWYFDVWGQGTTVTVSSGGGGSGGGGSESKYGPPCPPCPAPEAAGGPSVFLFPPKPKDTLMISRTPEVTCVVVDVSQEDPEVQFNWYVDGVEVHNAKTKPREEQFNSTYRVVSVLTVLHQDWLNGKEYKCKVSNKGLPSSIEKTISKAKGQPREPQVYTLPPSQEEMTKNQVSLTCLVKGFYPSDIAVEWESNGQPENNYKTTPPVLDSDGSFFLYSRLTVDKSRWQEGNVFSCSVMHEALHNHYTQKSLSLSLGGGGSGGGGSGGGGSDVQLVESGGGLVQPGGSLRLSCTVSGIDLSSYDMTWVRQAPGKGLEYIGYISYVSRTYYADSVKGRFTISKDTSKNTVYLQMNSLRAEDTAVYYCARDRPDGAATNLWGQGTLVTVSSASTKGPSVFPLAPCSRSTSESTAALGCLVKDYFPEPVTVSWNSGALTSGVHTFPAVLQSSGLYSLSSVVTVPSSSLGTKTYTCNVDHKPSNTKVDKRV
light: DIQMTQSPSTLSASVGDRVTITCQSSQNVYSNNRLSWYQQKPGKAPKLLIYWTSFLASGVPSRFSGSGSGTEFTLTISSLQPDDFATYYCAGGYSGNLYTFGQGTKLEIKRTVAAPSVFIFPPSDEQLKSGTASVVCLLNNFYPREAKVQWKVDNALQSGNSQESVTEQDSKDSTYSLSSTLTLSKADYEKHKVYACEVTHQGLSSPVTKSFNRGEC
notes: Two heavy and two light chains; human IgG4 Fc; also called B结构

- FACS fluorescence signal at 0.308 nM (name of read-out not given) [1]: 543
- FACS fluorescence signal at 0.617 nM (name of read-out not given) [1]: 708
- FACS fluorescence signal at 1.851 nM (name of read-out not given) [1]: 1390
- FACS fluorescence signal at 5.555 nM (name of read-out not given) [1]: 3820
- FACS fluorescence signal at 16.666 nM (name of read-out not given) [1]: 8710
- FACS fluorescence signal at 50 nM (name of read-out not given) [1]: 8870
- EC50 [3]: 6.59 nM
B2: 抗人PD-L1/4-1BB双特异性抗体 D3 (结构D, D1的突变体, linker A(EAAAK)4ALE) (bispecific antibody, human IgG4 S228P, kappa, F234A L235A)
heavy: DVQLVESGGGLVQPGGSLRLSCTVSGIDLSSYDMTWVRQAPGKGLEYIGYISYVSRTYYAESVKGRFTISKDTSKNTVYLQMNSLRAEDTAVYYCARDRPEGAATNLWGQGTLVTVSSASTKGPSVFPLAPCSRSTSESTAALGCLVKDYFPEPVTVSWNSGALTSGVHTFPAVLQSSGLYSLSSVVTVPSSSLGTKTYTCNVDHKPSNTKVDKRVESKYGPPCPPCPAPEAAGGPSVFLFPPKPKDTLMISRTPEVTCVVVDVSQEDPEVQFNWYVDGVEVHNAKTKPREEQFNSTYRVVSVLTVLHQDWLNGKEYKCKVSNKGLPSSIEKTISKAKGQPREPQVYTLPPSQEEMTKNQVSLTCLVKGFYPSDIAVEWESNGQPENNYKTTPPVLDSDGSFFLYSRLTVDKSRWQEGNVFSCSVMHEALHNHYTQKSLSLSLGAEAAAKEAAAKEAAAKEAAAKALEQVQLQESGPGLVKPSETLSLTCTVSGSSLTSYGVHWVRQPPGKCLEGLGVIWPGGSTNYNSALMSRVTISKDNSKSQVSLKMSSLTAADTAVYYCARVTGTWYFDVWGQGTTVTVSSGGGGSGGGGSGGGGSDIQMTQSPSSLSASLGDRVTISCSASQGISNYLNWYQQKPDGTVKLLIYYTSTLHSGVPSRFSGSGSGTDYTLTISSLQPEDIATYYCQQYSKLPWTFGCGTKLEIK
light: B1 light
notes: Anti-PD-L1 IgG4 with an anti-4-1BB scFv at the C-terminus of each heavy chain

- FACS fluorescence signal at 0.308 nM (name of read-out not given) [1]: 516
- FACS fluorescence signal at 0.617 nM (name of read-out not given) [1]: 654
- FACS fluorescence signal at 1.851 nM (name of read-out not given) [1]: 1190
- FACS fluorescence signal at 5.555 nM (name of read-out not given) [1]: 2950
- FACS fluorescence signal at 16.666 nM (name of read-out not given) [1]: 8400
- FACS fluorescence signal at 50 nM (name of read-out not given) [1]: 8920
- binding result [6]: binds
- binding result [2]: binds
- EC50 [3]: 7.6 nM
- binding result [4]: binds
- binding result [7]: binds
- binding result [5]: binds
B3: 抗人PD-L1/4-1BB双特异性抗体 D6 (结构D, D2的突变体, linker (G4S)3) (bispecific antibody, human IgG4 S228P, kappa, F234A L235A)
heavy: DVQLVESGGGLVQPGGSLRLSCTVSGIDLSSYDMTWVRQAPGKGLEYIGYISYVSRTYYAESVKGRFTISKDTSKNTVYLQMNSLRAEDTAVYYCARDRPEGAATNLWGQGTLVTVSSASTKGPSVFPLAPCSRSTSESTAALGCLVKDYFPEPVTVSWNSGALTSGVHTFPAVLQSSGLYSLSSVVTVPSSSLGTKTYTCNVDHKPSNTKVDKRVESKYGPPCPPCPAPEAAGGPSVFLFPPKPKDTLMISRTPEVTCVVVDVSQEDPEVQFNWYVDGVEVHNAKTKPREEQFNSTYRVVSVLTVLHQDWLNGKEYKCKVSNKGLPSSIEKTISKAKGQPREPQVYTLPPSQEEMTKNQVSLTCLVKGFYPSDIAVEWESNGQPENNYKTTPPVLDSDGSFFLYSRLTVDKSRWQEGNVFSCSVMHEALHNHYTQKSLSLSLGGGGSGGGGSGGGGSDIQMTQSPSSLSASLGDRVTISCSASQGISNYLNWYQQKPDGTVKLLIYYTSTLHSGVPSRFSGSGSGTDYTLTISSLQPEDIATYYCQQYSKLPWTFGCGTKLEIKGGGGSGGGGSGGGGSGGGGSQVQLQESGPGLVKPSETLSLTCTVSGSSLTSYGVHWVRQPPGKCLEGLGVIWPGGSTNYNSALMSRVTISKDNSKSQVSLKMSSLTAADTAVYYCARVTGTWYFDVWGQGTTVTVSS
light: B1 light
notes: as for B2
